{"source": "paper PMC5385555", "about": "“Molecular basis for the behavioral effects of the odorant degrading enzyme Esterase 6 in Drosophila” (Scientific Reports, 2017)", "proteins": {"B1": {"name": "EST6 (wildtype EST6, EST6-WT) (Drosophila melanogaster) (protein)", "chain": "SDTDDPLLVQLPQGKLRGRDNGSYYSYESIPYAEPPTGDLRFEAPEPYKQKWSDIFDATKTPVACLQWDQFTPGANKLVGEEDCLTVSVYKPKNSKRNSFPVVAHIHGGAFMFGAAWQNGHENVMREGKFILVKISYRLGPLGFVSTGDRDLPGNYGLKDQRLALKWIKQNIASFGGEPQNVLLVGHSAGGASVHLQMLREDFGQLARAAFSFSGNALDPWVIQKGARGRAFELGRNVGCESAEDSTSLKKCLKSKPASELVTAVRKFLIFSYVPFAPFSPVLEPSDAPDAIITQDPRDVIKSGKFGQVPWAVSYVTEDGGYNAALLLKERKSGIVIDDLNERWLELAPYLLFYRDTKTKKDMDDYSRKIKQEYIGNQRFDIESYSELQRLFTDILFKNSTQESLDLHRKYGKSPAYAYVYDNPAEKGIAQVLANRTDYDFGTVHGDDYFLIFENFVRDVEMRPDEQIISRNFINMLADFASSDNGSLKYGECDFKDNVGSEKFQLLAIYIDGCQNRQHVEFP", "notes": "wildtype, baculovirus expressed, semi-purified; N-terminal signal peptide of 63 bp (21 residues) in the gene"}}, "key": {"[1]": {"substrate": "CC(=O)Oc1ccc([N+](=O)[O-])cc1", "assay": "UV/vis substrate-loss assay", "assay_type": "biochemical, Drosophila melanogaster", "conditions": "Tris-HCl pH 8.0, 25 °C, 5% ethanol (Table S1), Fig. S1 without ethanol"}, "[2]": {"substrate": "CC(=O)Oc1ccc2ccccc2c1", "assay": "UV/vis substrate-loss assay", "assay_type": "biochemical, Drosophila melanogaster", "conditions": "Tris-HCl pH 8.0, 25 °C, 5% ethanol"}}, "data": [{"protein": "B1", "values": [{"measurement": "Km", "setting": "[1]", "value": "269 ± 18", "unit": "µM"}, {"measurement": "kcat", "setting": "[1]", "value": "105 ± 2 s-1 (head prints M.s-1)"}, {"measurement": "Km", "setting": "[2]", "value": "121 ± 6", "unit": "µM"}, {"measurement": "kcat", "setting": "[2]", "value": "135 ± 2 s-1 (head prints M.s-1)"}]}]}
